Tested on: MS2 coat protein
Assay: apparent KD of MS2 coat protein; designed switch direction (-1 OFF switch, 1 ON switch): -1; higher = weaker reporter binding
Summary of the method: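 Designed RNA switches with common flanks were made on Illumina chips by stalled E. coli RNA polymerase. Titration with SNAP-549-labelled MS2 coat protein doubled from 0.7 or 1.5 nM up to 3 µM. Apparent KD is each design's median over clusters after curve-fitting normalised fluorescence.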

[1] = input ligand: microRNA oligo, concentration not stated
[2] = Eterna round: R95, input ligand: FMN 200 uM
[3] = Eterna round: R95, input ligand: microRNA oligo, concentration not stated
[4] = Eterna round: R95, input ligand: none

Sequence	apparent KD of MS2 coat protein (input ligand: FMN 200 uM)	apparent KD of MS2 coat protein (input ligand: none)	apparent KD of MS2 coat protein [1]	apparent KD of MS2 coat protein [2]	apparent KD of MS2 coat protein [3]	apparent KD of MS2 coat protein [4]
GCCCGGGCAGGAUAUACAAUGAAGUUGAGAAAUCGGCUUCGACAUGAGGAUCACCCAUGUAGAAGGGCCCGGGC [-36.9, -34.6 kcal, A 28% 3] (Eterna round: R97, puzzle: Exclusion 2)	0.0176 µM	0.0146 µM				
GCCCGGGCAGGAUAUACGUGGCCCGGGUAACCGGGCCUCAGACAUGAGGAUCACCCAUGUAGAAGGGCCCGGGC [-44, -43.8 kcal, A 22%] (Eterna round: R97, puzzle: Exclusion 2)	0.0181 µM	0.0183 µM				
UAUAUAUAGUAAGGAUAUAUAUUUUUUUUAUAAAUAGAAGGUACAGACAUGAGGAUCACCCAUGUUAUAAUAUGGACAUGUGGA [JMF's Solution 2] (Eterna round: R96, puzzle: Exclusion NG 1)			0.0774 µM			
ACGAUGACCGAAAAGUGUAAACUGACAUGAGGAUCACCCAUGUAGGAUAUGGCUACGAAAAGUAGUCAGAAGGGCAUGUCAUCA [Omei Exc(NG) 3 Av9] (Eterna round: R96, puzzle: Exclusion NG 3)	0.016 µM	0.0209 µM	0.0164 µM			
GCAAGCUUUUUCAAUAAGAACAUGAGGAUCACCCAUGUUUAAGGUAUUACUUUUGGGCUCUUUAGUGCUAGUCUUAU [JR_STOV1_Sub036] (Eterna round: R97, puzzle: Sensor, turn-off variant 1)	0.0459 µM	0.0455 µM				
GAGAAGGUAGGAUAUACGAAUAAAUAGGGUAGUAAUAAGACACAUGAGGAUCACCCAUGUAGAAGGACCAAGAG [Mat - Exclusion 2 - Mod of my Tesla design - D38] (puzzle: Exclusion 2)				0.037 µM	0.0193 µM	0.0211 µM
CCUACUCAGCGAGGAUAUGUAACGGUGACUAGGGACGUCUACAUGAGGAUCACCCAUGUGACUAAGCAGAAGGCGCAGAGCCCA [Learve] (Eterna round: R96, puzzle: Exclusion NG 2)	0.0542 µM	0.0477 µM	0.0331 µM			
UGGUUGUCAGGAUAUACGGUUUUUAACUUUAGUUUUAUAUUGUAGAAGGGACAUGAGGAUCACCCAUGUUACGU [LRO-Excl4-11-Bluer Omei Mod] (Eterna round: R97, puzzle: Exclusion 4)	0.0295 µM	0.0265 µM				
GGUGCGUAUGUGAGGAUAUGCUGGUCCUUGGGUCGGCAGAAGGCACAUGAGGAUCACCCAUGUGGUGUCGUUCC [salish99_Bmod_ex4_101] (puzzle: Brourd's mod of Exclusion 4)					0.068 µM	
GGAGGACGAGCAGGAUAUUUUCACAUGAGGAUCACCCAUGUGUACUCAGGGUAAUCCUCCGCCGAAAAGAAGGGUUCGGAAGAA [JL ViennaUCT Socedi mod 1] (Eterna round: R96, puzzle: Exclusion NG 2)	0.0467 µM	0.0508 µM	0.0332 µM			
UGCGAAGAGUGAGGAUAUGUGCGACAAAGUUGCACAGAAGGCACAUGAGGAUCACCCAUGUGAGCUAGGUCGAAAGACCUAGCG [Omei Exc(NG)1 Av7] (Eterna round: R96, puzzle: Exclusion NG 1)	0.0434 µM	0.0248 µM	0.0173 µM			
ACCAAGCUAGGAUAUGCUUGGGCUCAAAUAAAUAAACACAAACAUGAGGAUCACCCAUGUAGAAGGAGCUUGCU [Zaabiquer] (puzzle: Exclusion 2)					0.0126 µM	
AGAUGUAGAUACCGAUCCUACAUGAGGAUCACCCAUGUAGCUAGACGUGCGGGCGGCGCUCGUCGGACUACCAGUAG [salish99_TOv1_r3_095] (puzzle: Sensor v3, turn-off variant 1)				0.163 µM	0.155 µM	0.232 µM
CAAACCUCAGGAUAUCGAGACUCGGACAUGAGGAUCACCCAUGUGAGGCUCGUGAGUCCACGAGAAGGGAGGAGCA [Eternabot (Original) Solution 38] (Eterna round: R97, puzzle: Exclusion 5)	0.0261 µM	0.0174 µM				

— the supplement of paper PMC9170038
